US20260139049A1 (PEDIATRIC IMMUNITY AND HEALTHCARE GUANGZHOU BIOTECHNOLOGY, published 2026)

T1: human CLDN6 (human, UniProt P56747 1-220)
T1 sequence (looked up): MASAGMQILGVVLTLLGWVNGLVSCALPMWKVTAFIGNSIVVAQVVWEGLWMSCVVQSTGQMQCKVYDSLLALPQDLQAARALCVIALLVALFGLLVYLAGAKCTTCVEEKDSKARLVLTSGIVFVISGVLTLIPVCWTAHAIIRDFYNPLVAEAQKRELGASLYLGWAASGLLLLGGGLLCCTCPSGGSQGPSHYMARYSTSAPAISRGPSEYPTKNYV

T2: mouse CLDN6 (mouse, UniProt Q9Z262 1-219)
T2 construct: whole, on cells; also called CHO-K1-Mouse CLDN6
T2 sequence (looked up): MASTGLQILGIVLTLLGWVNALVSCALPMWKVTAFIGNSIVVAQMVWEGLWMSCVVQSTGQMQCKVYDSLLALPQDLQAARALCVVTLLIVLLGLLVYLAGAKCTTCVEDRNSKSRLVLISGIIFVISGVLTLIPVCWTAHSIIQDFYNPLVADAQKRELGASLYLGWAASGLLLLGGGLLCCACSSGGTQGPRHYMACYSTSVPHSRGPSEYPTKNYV

T3: human CLDN3 (human, UniProt O15551 1-220)
T3 construct: whole, on cells; also called HEK293T-CLDN3
T3 sequence (looked up): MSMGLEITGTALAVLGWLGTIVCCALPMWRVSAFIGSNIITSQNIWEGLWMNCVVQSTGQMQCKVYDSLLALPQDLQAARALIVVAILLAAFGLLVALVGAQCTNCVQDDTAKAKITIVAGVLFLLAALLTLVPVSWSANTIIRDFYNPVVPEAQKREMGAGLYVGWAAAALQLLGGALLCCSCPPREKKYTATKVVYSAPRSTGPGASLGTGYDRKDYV

T4: human CLDN4 (human, UniProt O14493 1-209)
T4 construct: whole, on cells; also called HEK293T-CLDN4
T4 sequence (looked up): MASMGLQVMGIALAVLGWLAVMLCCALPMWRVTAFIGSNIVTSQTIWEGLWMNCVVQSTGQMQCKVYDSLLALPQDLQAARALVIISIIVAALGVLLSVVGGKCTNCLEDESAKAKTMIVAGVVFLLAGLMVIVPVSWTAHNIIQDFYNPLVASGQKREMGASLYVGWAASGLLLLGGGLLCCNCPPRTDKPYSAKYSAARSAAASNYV

T5: human CLDN9 (human, UniProt O95484 1-217)
T5 construct: whole, on cells; also called HEK293T-CLDN9
T5 sequence (looked up): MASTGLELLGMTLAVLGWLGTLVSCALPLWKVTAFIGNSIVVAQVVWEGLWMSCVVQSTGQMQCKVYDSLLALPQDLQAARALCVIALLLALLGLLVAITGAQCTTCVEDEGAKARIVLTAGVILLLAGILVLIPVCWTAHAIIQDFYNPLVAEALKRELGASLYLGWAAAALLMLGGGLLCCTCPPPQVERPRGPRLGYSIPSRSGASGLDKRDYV


Experiments:
human CLDN6 [1] = molecular target: T1, human CLDN6; assay: cell-based or functional assay
human CLDN6 [2] = molecular target: T1, human CLDN6; assay: cell-based or functional assay; remark: listed apart in the source
human CLDN6 [3] = molecular target: T1, human CLDN6; assay: FACS on HEK293T-CLDN6 cells
Description: (§1) To detect a binding capacity of a chimeric or humanized antibody to CLDN6, a CLDN6-expressing cell line HEK293T-CLDN6 and a CLDN6-negative control cell line HEK293T were washed three times with PBS. 1×10⁵ test cells and 50 μL of an antibody solution to be tested were added to a 96-well plate, and incubated at 4° C. for 1 h. The cells were then washed three times with PBS. […] Finally, cells were washed three times with PBS, and signals were read using FACS.
(§2) An EC50 value (a concentration of an antibody that binds to half of binding sites at equilibrium) is calculated through nonlinear regression.

human CLDN6 [4] = molecular target: T1, human CLDN6; assay: FACS on HEK293T-CLDN6 cells; remark: listed apart in the source
Description: as §1, §2

[5] = molecular target: T6, monkey CLDN6 (Cyno CLDN6) (monkey (Cyno)); assay: FACS on CHO-K1-Cyno CLDN6 cells
T6 construct: whole, on cells; also called CHO-K1-Cyno CLDN6

mouse CLDN6 = molecular target: T2, mouse CLDN6; assay: FACS on CHO-K1-Mouse CLDN6 cells
human CLDN3 = molecular target: T3, human CLDN3; assay: FACS on 293T-CLDN3 cells, 10 µg/mL
Description: (§3) 50 μL of an antibody to be tested was added to a 96-well plate, then 1× 10⁵ cells were added to each well, and incubation was conducted at 4° C. for 1 h. Cells were washed three times with PBS. […] Finally, cells were washed three times with PBS, and signals were read using FACS. Binding capacities of the antibody to CLDN9, CLDN3, and CLDN4 were analyzed separately based on detection data.

human CLDN4 = molecular target: T4, human CLDN4; assay: FACS on 293T-CLDN4 cells, 10 µg/mL
Description: as §3

human CLDN6 [6] = molecular target: T1, human CLDN6; assay: FACS on 293T-CLDN6 cells, 10 µg/mL
human CLDN9 = molecular target: T5, human CLDN9; assay: FACS on 293T-CLDN9 cells, 10 µg/mL
Description: as §3

human CLDN6 [7] = molecular target: T1, human CLDN6; assay: ratio of FACS signals on CLDN6 cells over CLDN9 cells
Description: as §3

human CLDN6 [8] = molecular target: T1, human CLDN6; assay: FACS on PA-1 tumour cells; target on the cells taken as CLDN6
Description: (§4) The specific binding of a chimeric antibody to a tumor cell was detected by FACS, and an EC50 value was calculated accordingly to evaluate an inhibitory effect of the chimeric antibody on the tumor cell.
as §3, with “1×10⁵” for “1× 10⁵”, “A binding capacity” for “Binding capacities”, “each tumor cell was” for “CLDN9, CLDN3, and CLDN4 were”, “analyzed” for “analyzed separately”

human CLDN6 [9] = molecular target: T1, human CLDN6; assay: as above; remark: listed apart in the source
Description: as §3, with “1×10⁵” for “1× 10⁵”, “A binding capacity” for “Binding capacities”, “each tumor cell was” for “CLDN9, CLDN3, and CLDN4 were”, “analyzed” for “analyzed separately”

human CLDN6 [10] = molecular target: T1, human CLDN6; assay: FACS on HepG2 tumour cells; target on the cells taken as CLDN6
Description: as §4
as §3, with “1×10⁵” for “1× 10⁵”, “A binding capacity” for “Binding capacities”, “each tumor cell was” for “CLDN9, CLDN3, and CLDN4 were”, “analyzed” for “analyzed separately”

human CLDN6 [11] = molecular target: T1, human CLDN6; assay: as above; remark: listed apart in the source
Description: as §3, with “1×10⁵” for “1× 10⁵”, “A binding capacity” for “Binding capacities”, “each tumor cell was” for “CLDN9, CLDN3, and CLDN4 were”, “analyzed” for “analyzed separately”

human CLDN6 [12] = molecular target: T1, human CLDN6; assay: ratio of FACS Geom.Mean on 293T-CLDN6 over 293T-CLDN9, 10 µg/mL
Description: as §3

human CLDN6 [13] = molecular target: T1, human CLDN6; assay: binding to CLDN6-expressing cells; method not given

Row | Binder | EC50 (human CLDN6 [3]) | EC50 [5] | EC50 (mouse CLDN6) | Geom.Mean (human CLDN3) | Geom.Mean (human CLDN4) | Geom.Mean (human CLDN6 [6]) | Geom.Mean (human CLDN9) | CLDN6/CLDN9 signal ratio (human CLDN6 [7]) | CLDN6/CLDN9 ratio (human CLDN6 [12]) | binding result (human CLDN6 [13]) | other results
1 | 51C10H4 (antibody, human IgG1, kappa, V domains shown, chimeric IgG1) VH: EVQLQQSGPELVKPGASVKMSCKASGYTFTDYNMHWVKKSHGKSLEWIGYVNPNNGATSYNQKFKGKATLTVNKSSSTAYMELRSLTSEDSAVYNCARWDGYVYYYGLDYWGQGTSVTVSS VL: DIQMTQSSSYLSVSLGGRVTITCKASDHINNWLAWYQQKPGNAPRLLISGATSLETGVPSRFSGSGSGKDYTLSITSLQTEDVATYYCQQYWSTPYTFGGGTKLEIKR | 0.354 µg/mL | 0.722 µg/mL | 0.935 µg/mL | 103 | 210 | 44900 | 248 | ~200 fold | 181 |  | ADCC dose-response fit: EC50 (human CLDN6 [1]): 0.0483 µg/mL; ADCC dose-response fit: LogEC50 (human CLDN6 [1]): -1.32; CDC dose-response fit: EC50 (human CLDN6 [2]): 0.178 µg/mL; CDC dose-response fit: LogEC50 (human CLDN6 [2]): -0.75; EC50 (human CLDN6 [4]): 0.235 µg/mL; EC50 (human CLDN6 [8]): 0.538 µg/mL; EC50 (human CLDN6 [9]): 0.34 µg/mL; EC50 (human CLDN6 [10]): 0.294 µg/mL; EC50 (human CLDN6 [11]): 0.49 µg/mL
2 | 47D5D6 (antibody, human IgG1, kappa, V domains shown, chimeric: murine variable regions on human IgG1 constant regions) VH: EVQLVESGGDLVKPGGSLKLSCAASGFTFSSYGMSWVRQTPDKRLEWVATISSGGSYTYYPDSVKGRFTISRDNAKNTLYLQMSSLKSEDTAMYYCARPHYVSSYAMDYWGQGTSVTVSS VL: DIQMTQSSSSFSVSLGDRVTITCKASEDIYNRLAWYQQKPGNAPRLLISGATSLETGVPSRFSGSGSGKDYTLSITSLQTEDVATYYCQQYWSTPPTFGGGTKLEIKR | 1.04 µg/mL | 1.94 µg/mL | 2.09 µg/mL | 151 | 5620 | 33000 | 428 | ~50 fold | 77 |  | 
3 | 51C10-M3 (antibody, human IgG1, kappa, V domains shown, 51C10H4 with G of DG in heavy-chain CDR3 changed to A; also called improved antibody 51C10-M3) VH: EVQLQQSGPELVKPGASVKMSCKASGYTFTDYNMHWVKKSHGKSLEWIGYVNPNNGATSYNQKFKGKATLTVNKSSSTAYMELRSLTSEDSAVYNCARWDAYVYYYGLDYWGQGTSVTVSS VL: DIQMTQSSSYLSVSLGGRVTITCKASDHINNWLAWYQQKPGNAPRLLISGATSLETGVPSRFSGSGSGKDYTLSITSLQTEDVATYYCQQYWSTPYTFGGGTKLEIKR |  |  |  |  |  |  |  |  |  | binds | 

Now from value to binder, other results behind:

Row | EC50 (human CLDN6 [3]) | EC50 [5] | EC50 (mouse CLDN6) | Geom.Mean (human CLDN3) | Geom.Mean (human CLDN4) | Geom.Mean (human CLDN6 [6]) | Geom.Mean (human CLDN9) | CLDN6/CLDN9 signal ratio (human CLDN6 [7]) | CLDN6/CLDN9 ratio (human CLDN6 [12]) | binding result (human CLDN6 [13]) | Binder | other results
4 |  |  |  |  |  |  |  |  |  | binds | 51C10-M2 (antibody, human IgG1, kappa, V domains shown, 51C10H4 with N of NG in heavy-chain CDR2 changed to Q; also called improved antibody 51C10-M2) VH: EVQLQQSGPELVKPGASVKMSCKASGYTFTDYNMHWVKKSHGKSLEWIGYVNPNQGATSYNQKFKGKATLTVNKSSSTAYMELRSLTSEDSAVYNCARWDGYVYYYGLDYWGQGTSVTVSS VL: DIQMTQSSSYLSVSLGGRVTITCKASDHINNWLAWYQQKPGNAPRLLISGATSLETGVPSRFSGSGSGKDYTLSITSLQTEDVATYYCQQYWSTPYTFGGGTKLEIKR | 
5 |  |  |  |  |  |  |  |  |  | binds | 51C10-M4 (antibody, human IgG1, kappa, V domains shown, 51C10H4 with D of DG in heavy-chain CDR3 changed to E; also called improved antibody 51C10-M4) VH: EVQLQQSGPELVKPGASVKMSCKASGYTFTDYNMHWVKKSHGKSLEWIGYVNPNNGATSYNQKFKGKATLTVNKSSSTAYMELRSLTSEDSAVYNCARWEGYVYYYGLDYWGQGTSVTVSS VL: DIQMTQSSSYLSVSLGGRVTITCKASDHINNWLAWYQQKPGNAPRLLISGATSLETGVPSRFSGSGSGKDYTLSITSLQTEDVATYYCQQYWSTPYTFGGGTKLEIKR | 
